B1: Serine/threonine-protein kinase CBK1 (Saccharomyces cerevisiae), P53894 (parent)
chain: MYNSSTNHHEGAPTSGHGYYMSQQQDQQHQQQQQYANEMNPYQQIPRPPAAGFSSNYMKEQGSHQSLQEHLQRETGNLGSGFTDVPALNYPATPPPHNNYAASNQMINTPPPSMGGLYRHNNNSQSMVQNGNGSGNAQLPQLSPGQYSIESEYNQNLNGSSSSSPFHQPQTLRSNGSYSSGLRSVKSFQRLQQEQENVQVQQQLSQAQQQNSRQQQQQLQYQQQQQQQQQQQHMQIQQQQQQQQQQQQSQSPVQSGFNNGTISNYMYFERRPDLLTKGTQDKAAAVKLKIENFYQSSVKYAIERNERRVELETELTSHNWSEERKSRQLSSLGKKESQFLRLRRTRLSLEDFHTVKVIGKGAFGEVRLVQKKDTGKIYAMKTLLKSEMYKKDQLAHVKAERDVLAGSDSPWVVSLYYSFQDAQYLYLIMEFLPGGDLMTMLIRWQLFTEDVTRFYMAECILAIETIHKLGFIHRDIKPDNILIDIRGHIKLSDFGLSTGFHKTHDSNYYKKLLQQDEATNGISKPGTYNANTTDTANKRQTMVVDSISLTMSNRQQIQTWRKSRRLMAYSTVGTPDYIAPEIFLYQGYGQECDWWSLGAIMYECLIGWPPFCSETPQETYRKIMNFEQTLQFPDDIHISYEAEDLIRRLLTHADQRLGRHGGADEIKSHPFFRGVDWNTIRQVEAPYIPKLSSITDTRFFPTDELENVPDSPAMAQAAKQREQMTKQGGSAPVKEDLPFIGYTYSRFDYLTRKNAL
partner: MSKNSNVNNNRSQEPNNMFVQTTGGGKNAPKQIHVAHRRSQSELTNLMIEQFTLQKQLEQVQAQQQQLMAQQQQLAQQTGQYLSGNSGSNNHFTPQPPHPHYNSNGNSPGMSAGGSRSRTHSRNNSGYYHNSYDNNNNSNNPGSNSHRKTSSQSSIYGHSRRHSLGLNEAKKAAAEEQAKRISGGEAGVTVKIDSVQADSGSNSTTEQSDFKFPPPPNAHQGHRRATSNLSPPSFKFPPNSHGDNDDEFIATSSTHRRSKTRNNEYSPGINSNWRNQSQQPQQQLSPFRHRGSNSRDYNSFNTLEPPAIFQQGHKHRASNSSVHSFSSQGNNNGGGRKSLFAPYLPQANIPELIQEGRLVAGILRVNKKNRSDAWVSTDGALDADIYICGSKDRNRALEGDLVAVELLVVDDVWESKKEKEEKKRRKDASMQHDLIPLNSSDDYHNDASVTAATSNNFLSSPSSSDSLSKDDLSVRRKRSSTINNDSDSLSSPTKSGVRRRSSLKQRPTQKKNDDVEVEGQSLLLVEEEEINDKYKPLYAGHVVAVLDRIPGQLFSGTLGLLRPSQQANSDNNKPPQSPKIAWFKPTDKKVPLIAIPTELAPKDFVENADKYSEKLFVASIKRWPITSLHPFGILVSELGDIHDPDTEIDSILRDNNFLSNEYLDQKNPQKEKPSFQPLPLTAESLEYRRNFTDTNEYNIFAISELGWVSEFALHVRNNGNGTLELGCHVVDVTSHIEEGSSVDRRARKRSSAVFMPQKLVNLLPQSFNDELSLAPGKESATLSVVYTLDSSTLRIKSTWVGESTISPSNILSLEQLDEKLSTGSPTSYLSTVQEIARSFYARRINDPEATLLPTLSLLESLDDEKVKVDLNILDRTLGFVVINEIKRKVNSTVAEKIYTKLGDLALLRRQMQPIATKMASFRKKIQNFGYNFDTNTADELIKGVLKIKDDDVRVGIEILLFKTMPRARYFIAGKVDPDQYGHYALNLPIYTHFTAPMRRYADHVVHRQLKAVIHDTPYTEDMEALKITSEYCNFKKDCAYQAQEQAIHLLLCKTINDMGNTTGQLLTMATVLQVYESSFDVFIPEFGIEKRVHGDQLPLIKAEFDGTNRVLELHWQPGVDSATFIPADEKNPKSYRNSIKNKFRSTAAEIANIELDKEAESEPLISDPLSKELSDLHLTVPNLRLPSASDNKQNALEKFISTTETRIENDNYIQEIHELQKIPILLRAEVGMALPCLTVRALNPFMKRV
B2: Protein SSD1 (Saccharomyces cerevisiae), P24276 (parent)
chain: B1 partner
B3: Metallothionein expression activator (Saccharomyces cerevisiae), P21192 (parent)
chain: MDNVVDPWYINPSGFAKDTQDEEYVQHHDNVNPTIPPPDNYILNNENDDGLDNLLGMDYYNIDDLLTQELRDLDIPLVPSPKTGDGSSDKKNIDRTWNLGDENNKVSHYSKKSMSSHKRGLSGTAIFGFLGHNKTLSISSLQQSILNMSKDPQPMELINELGNHNTVKNNNDDFDHIRENDGENSYLSQVLLKQQEELRIALEKQKEVNEKLEKQLRDNQIQQEKLRKVLEEQEEVAQKLVSGATNSNSKPGSPVILKTPAMQNGRMKDNAIIVTTNSANGGYQFPPPTLISPRMSNTSINGSPSRKYHRQRYPNKSPESNGLNLFSSNSGYLRDSELLSFSPQNYNLNLDGLTYNDHNNTSDKNNNDKKNSTGDNIFRLFEKTSPGGLSISPRINGNSLRSPFLVGTDKSRDDRYAAGTFTPRTQLSPIHKKRESVVSTVSTISQLQDDTEPIHMRNTQNPTLRNANALASSSVLPPIPGSSNNTPIKNSLPQKHVFQHTPVKAPPKNGSNLAPLLNAPDLTDHQLEIKTPIRNNSHCEVESYPQVPPVTHDIHKSPTLHSTSPLPDEIIPRTTPMKITKKPTTLPPGTIDQYVKELPDKLFECLYPNCNKVFKRRYNIRSHIQTHLQDRPYSCDFPGCTKAFVRNHDLIRHKISHNAKKYICPCGKRFNREDALMVHRSRMICTGGKKLEHSINKKLTSPKKSLLDSPHDTSPVKETIARDKDGSVLMKMEEQLRDDMRKHGLLDPPPSTAAHEQNSNRTLSNETDAL

Variants of: B1
Conditions: with ssd1_yeast SSD1, P24276

Variant | effect of a mutation on the interaction
Y687A | disrupting interaction strength

Variants of: B2
Conditions: with cbk1_yeast CBK1, P53894

Variant | effect of a mutation on the interaction
F211W | disrupting interaction strength
F211A | disrupting interaction strength
P214A | disrupting interaction strength
F213Y | disrupting interaction strength
F213A | disrupting interaction strength
F213W | disrupting interaction strength
K212Q | disrupting interaction strength
K212M | disrupting interaction strength
K212T | disrupting interaction strength
K212F | disrupting interaction strength
K212A | disrupting interaction strength
K212S | disrupting interaction strength
K212D | disrupting interaction strength

Variants of: B3
Conditions: with cbk1_yeast CBK1, P53894

Variant | effect of a mutation on the interaction
F285A | disrupting interaction strength
I272A | decreasing interaction strength
Y283A | disrupting interaction strength
P286A | disrupting interaction strength
N277A | decreasing interaction strength

From IntAct's records for PubMed 25966461
